Laboratory results from US20250250335A1 (SHENGHE CHINA BIOPHARMACEUTICAL, published 2025).
Read-outs that look alike come from different tables or passages of the source.

T1: mouse CEACAM5 (mouse, UniProt Q3UKK2 35-947, limits assumed)
T1 sequence (looked up): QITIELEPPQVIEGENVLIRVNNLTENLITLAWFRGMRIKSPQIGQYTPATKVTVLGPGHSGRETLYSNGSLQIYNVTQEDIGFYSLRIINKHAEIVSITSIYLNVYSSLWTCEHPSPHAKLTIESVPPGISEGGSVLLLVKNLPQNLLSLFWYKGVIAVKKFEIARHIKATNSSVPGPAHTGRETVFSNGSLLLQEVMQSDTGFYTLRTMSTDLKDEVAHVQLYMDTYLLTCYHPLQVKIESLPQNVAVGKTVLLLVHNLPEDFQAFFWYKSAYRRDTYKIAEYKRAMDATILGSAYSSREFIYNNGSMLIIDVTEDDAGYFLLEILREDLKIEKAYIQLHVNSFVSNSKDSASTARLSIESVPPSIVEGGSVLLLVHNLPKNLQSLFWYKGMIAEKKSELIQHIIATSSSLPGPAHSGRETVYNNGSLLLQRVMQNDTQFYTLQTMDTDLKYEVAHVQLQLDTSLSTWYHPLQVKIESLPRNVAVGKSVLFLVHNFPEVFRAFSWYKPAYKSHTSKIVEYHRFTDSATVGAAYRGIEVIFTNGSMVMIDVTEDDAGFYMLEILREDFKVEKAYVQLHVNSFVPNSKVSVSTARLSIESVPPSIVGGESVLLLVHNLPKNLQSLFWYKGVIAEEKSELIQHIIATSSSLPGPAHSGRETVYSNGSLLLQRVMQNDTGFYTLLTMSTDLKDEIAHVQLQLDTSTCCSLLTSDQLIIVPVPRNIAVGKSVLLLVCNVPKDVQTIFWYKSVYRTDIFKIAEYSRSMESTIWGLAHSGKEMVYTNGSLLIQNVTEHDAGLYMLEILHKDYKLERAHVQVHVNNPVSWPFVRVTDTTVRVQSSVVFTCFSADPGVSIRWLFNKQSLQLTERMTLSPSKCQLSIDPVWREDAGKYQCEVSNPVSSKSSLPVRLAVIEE

T2: human CEACAM5-his (ACRO CE5-H5226) (human, UniProt P06731 35-685)
T2 construct: Bought protein; not shown: His tag
T2 sequence (looked up): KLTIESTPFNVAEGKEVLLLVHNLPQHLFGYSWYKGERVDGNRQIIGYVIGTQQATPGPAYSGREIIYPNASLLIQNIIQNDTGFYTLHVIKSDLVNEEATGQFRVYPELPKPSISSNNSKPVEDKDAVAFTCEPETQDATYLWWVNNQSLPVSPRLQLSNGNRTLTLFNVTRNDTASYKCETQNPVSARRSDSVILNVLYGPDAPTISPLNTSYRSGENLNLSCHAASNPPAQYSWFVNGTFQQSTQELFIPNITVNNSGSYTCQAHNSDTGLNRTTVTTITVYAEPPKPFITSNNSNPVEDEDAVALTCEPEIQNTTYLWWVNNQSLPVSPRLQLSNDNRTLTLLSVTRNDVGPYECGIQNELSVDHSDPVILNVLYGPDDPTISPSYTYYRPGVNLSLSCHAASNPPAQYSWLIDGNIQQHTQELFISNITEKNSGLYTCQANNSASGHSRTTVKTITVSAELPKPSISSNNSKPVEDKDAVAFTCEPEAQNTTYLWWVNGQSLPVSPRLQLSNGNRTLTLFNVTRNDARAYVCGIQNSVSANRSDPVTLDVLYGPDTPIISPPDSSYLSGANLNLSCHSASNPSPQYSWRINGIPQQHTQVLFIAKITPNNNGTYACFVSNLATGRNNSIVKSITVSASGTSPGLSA

T3: human CEACAM6-his (ACRO CE6-H5223) (human, UniProt P40199 35-320)
T3 construct: Bought protein; not shown: His tag
T3 sequence (looked up): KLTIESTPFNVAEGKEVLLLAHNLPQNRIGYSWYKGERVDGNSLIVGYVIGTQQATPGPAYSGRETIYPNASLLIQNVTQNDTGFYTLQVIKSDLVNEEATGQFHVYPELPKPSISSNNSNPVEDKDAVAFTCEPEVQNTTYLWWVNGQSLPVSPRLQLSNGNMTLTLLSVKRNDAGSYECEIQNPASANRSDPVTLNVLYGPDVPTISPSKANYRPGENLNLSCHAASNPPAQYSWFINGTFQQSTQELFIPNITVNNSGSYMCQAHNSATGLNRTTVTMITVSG

T4: CEACAM5 on the surface of the tumor cells (HPAFII cells) (UniProt P06731 35-685)
T4 construct: whole, on cells
T4 sequence (looked up): T2 sequence (looked up)

T5: CEACAM6 on the surface of the tumor cells (HPAFII cells) (UniProt P40199 35-320)
T5 construct: whole, on cells
T5 sequence (looked up): T3 sequence (looked up)

B1: Antibody 13 (antibody, V domains shown)
VH: EVKLVESGGGLVQPGGSLSLSCTASGFTLTDYYMSWVRQPPGRALEWLALIRNKVNGYTIEYSASVKGRFTISRDNSQSILYLQMNALRAEDSATYYCARDIGIRWYFDVWGAGTTVTVSS
VL: QIVLSQSPAILSASPGEKVTMTCRASSSVSYMHWYQQKPGSSPKPWIYATSNLASGVPARFSGSGSGTSYSLTISRMEAEDAATYYCQQWSGNPPTFGGGTKLEIK
notes: Mouse-derived hybridoma antibody; also called mouse-derived antibody 13
B2: Antibody 7 (antibody, V domains shown)
VH: QIQLVQSGPELKKPGETVKISCKASGYTFTDYGMNWVKQAPGKGLKWMGWINTYTGEPTYPDDFKGRFAFSLETSATTAYLQINNLKNEDTATYFCSRGDLLVRLDNWGQGTTLTVSS
VL: DIQMTQSPSSLSASLGGKVTITCKASQDINKYISWYQHKPGKGPRLLIHYTSTLQSGIPSRFSGSGSGRDYSFSISNLEPEDIATYYCLQYDYLRTFGGGTKLEIK
notes: Mouse-derived hybridoma antibody; also called mouse-derived antibody 7
B3: Antibody 8 (antibody, V domains shown)
VH: EVQLRQSGPELVRPGASMKISCKASGYSFTAYTMTWVKQSHGKILEWIGLIAPYHGGTVYNQKFKGKATLTVDKSSSTAYMELLSLTSEDSAIYYCAGGASSGFVTWFAYWGQGTLVTVSA
VL: DIQMTQSPASLSASVGETVTITCGASENIYGALNWYQRKQGKSPQVLIYGATNLADGTSSRFSGSGSGRQYSLKINSLHPDDVATYYCQNVLSTPYTFGGGTKLEIK
notes: Mouse-derived hybridoma antibody; also called mouse-derived antibody 8
B4: Antibody 15 (antibody, V domains shown)
VH: QVQLQQPGAELVKPGASVTLSCKASGYTFTSYWINWVKQRPGQGLEWIGNIYPYTSSSNYNEKFKGKATLTVDTSSNTAYMQLSGLTSDDSAVYFCARKGNIYYSYESYPLDFWGQGTSVTVSS
VL: DIQMTQSSSSFSVSLGDRVTITCKASEDIYKQIGWYQQKPGNAPRLLIAGATSLETGVPSRFSGSGSGKDYMLNITSLQTEDVGSYYCQQYWSPPFTFGSGTKLEIK
notes: Mouse-derived hybridoma antibody; also called mouse-derived antibody 15
B5: Antibody B (antibody, human IgG1, kappa, V domains shown)
VH: EVQLVESGGGLVQPGGSLRLSCAASEFTLIDYYMSWVRQAPGKGLEWVGYIRNKVNGHTTDYIASVKGRFTISRDDSKNSLYLQMNSLKTEDTAVYYCARDPGINWYFDVWGQGTLVTVSS
VL: EIVLTQSPATLSLSPGERATLSCRASSRVTYMHWYQQKPGQSPRPLISATSNLASGIPARFSGSGSGTDYTLTISSLEPEDFAVYYCQQWSYNPPTFGGGTKLELKR
notes: Humanized form of mouse-derived antibody 2 on a human IgG framework; also called humanized antibody B

How the values were obtained:
Human-CEACAM6 (AB)-His [1] = target: T6, Human-CEACAM6 (AB)-His (human, UniProt P40199 145-314); experiment: ELISA on coated human CEACAM6 (AB), OD450
T6 construct: Made in house, purified on a nickel column
T6 sequence (P40199 other isoform, or with tags, fused parts or gaps limits assumed): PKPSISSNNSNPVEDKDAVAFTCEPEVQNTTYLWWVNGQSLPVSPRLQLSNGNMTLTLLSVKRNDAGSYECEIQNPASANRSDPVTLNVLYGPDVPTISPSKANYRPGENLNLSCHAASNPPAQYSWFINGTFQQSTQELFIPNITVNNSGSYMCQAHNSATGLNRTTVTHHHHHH
Method: (§1) The binding activity of the antibodies to human CEACAM5, human CEACAM6, and human CEACAM6 (AB) proteins was detected by ELISA. The plate coated with proteins was incubated at 4° C. overnight, and the 96-well ELISA plate blocked with 2% PBS-BSA was added with the antibody to be detected and incubated at 37° C. for 1 h. After washing 3 times with PBS containing 0.05% Tween, the absorbance value of each well was read at wavelength 450 nm with the gradient-diluted mouse-derived candidate antibody as the primary antibody and anti-mouse-IgG-FC-HRP as the secondary antibody, and the absorbance value of each well was read at wavelength 450 nm after the TMB color development.

mouse CEACAM5 = target: T1, mouse CEACAM5; experiment: ELISA on coated protein, OD450
Method: The affinity of the antibodies to monkey CEACAM5, monkey CEACAM6, and mouse CEACAM5 proteins was determined by ELISA. The plates encapsulated with […] proteins were incubated at 4° C. overnight, and the antibodies to be detected were added to 96-well ELISA plates after being blocked with 2% PBS-BSA and incubated at 37° C. for 1 h. After washing 3 times with PBS containing 0.05% Tween, the absorbance value of each well was read at wavelength 450 nm with the antibody to be detected as the primary antibody and Goat anti-mouse IgG-FC-HRP as the secondary antibody, and the absorbance value of each well was read at wavelength 450 nm after the TMB color development. The specific binding to CEACAM5 and CEACAM6 of mouse and monkey was detected by Elisa method.

[2] = target: T2, human CEACAM5-his (ACRO CE5-H5226); experiment: ELISA on coated human CEACAM5, OD450
Method: as §1

Human-CEACAM6 (AB)-His [3] = target: T6, Human-CEACAM6 (AB)-His; experiment: SPR (Biacore), antibody captured on CM5 chip, antigen as analyte, 1:1 model
Method: (§2) The CM5 sensor chip was activated at a flow rate of 10 μL/min for 420 seconds. The channel was then injected with 30 μg/mL of anti-rat Fc IgG in 10 mM NaAc (pH 4.5) at a flow rate of 10 μL/min. The chip was inactivated with 1 M ethanolamine-hydrochloric acid (GE) for 420 seconds at a flow rate of 10 μL/min.
(§3) Candidate antibodies in running buffer 1×HBS-EP+ (10 mM HEPES, 150 mM NaCl, 3 mM EDTA, 0.05% Tween 20, pH 7.4) were captured onto Fc2 with anti-rat Fc IgG at a flow rate of 10 μL/min. The 10 nM human CEACAM5-his protein or CEACAM-6-his or CEACAM6 (AB)-his protein and running buffer were sequentially injected into Fc1-Fc2 at a flow rate of […], bound for 180 seconds, and then dissociated for 3600 seconds. 10 mM glycine (pH 1.5) was injected as regeneration buffer after each dissociation.
(§4) Result plots for the reference channel Fc1 and the buffer channel were subtracted from the test result plots. The experimental data fit the 1:1 binding model. The molecular weight of 110 KDa was used to calculate the molar concentration of CEACAM5 protein, 55 KDa for human CEACAM6-his, and 55 KDa for human CEACAM6 (AB)-his.

[4] = target: T3, human CEACAM6-his (ACRO CE6-H5223); experiment: as above
Method: as §2, §3, §4

[5] = target: T2, human CEACAM5-his (ACRO CE5-H5226); experiment: as above
Method: as §2, §3, §4

[6] = target: T4, CEACAM5 on the surface of the tumor …; experiment: flow cytometry on HPAFII cells (Mean-FITC); the cells carry CEACAM5 and CEACAM6, signal not divided between the two
Method: (§5) The antibody to be tested was taken as the initial concentration of 200 nM and diluted 5-fold with 6 gradients. The HPAFII cells (From USTC […] FOR ADVANCED STUDIES) in the incubator were taken out, and the cell suspension was transferred to a 15 mL centrifuge tube, centrifuged, and counted by resuspension in PBS. A blank control group (Blank), a negative control group (NC), an experimental group, a positive control group and the irrelevant antibody group were kept. […] The cell suspension was spread in a 96-well plate according to about 3×10⁵ cells/well. Centrifugation (1000 rpm, 5 min) was performed, followed by washing with PBS, re-centrifugation, and repeated twice to remove media residues. The supernatant was discarded, 100 μL of primary antibody solution and irrelevant antibody solution were added to the experimental group and irrelevant antibody group, respectively, and the cells were resuspended and incubated at room temperature for 1 h. The blank group, and the negative control group were incubated with an equal amount of PBS.
(§6) After 1 h, PBS was added to wash twice. After the supernatant was discarded, 100 μL of fluorescent secondary antibody dilution (Mouse-derived secondary antibody from Abcam ab6785) was added to each sample group, except for the blank group which was added with 100 μL of PBS. After incubation at room temperature and protected from light for 0.5 h, centrifugation was performed and PBS added to wash the samples twice. After the supernatant was discarded, 120 μL of PBS was added to resuspend and sequentially flow cytometry was performed to detect the mean fluorescence intensity. The concentration of the antibody was logarithmically taken as the horizontal coordinate, and the Sigmoidaldose-response (VariableSlope) method (GraphPadPrism Software, GraphPadSoftware, San Diego, California) was chosen to perform a nonlinear regression to obtain the binding activity curves of the antibody on HPAFII cells.

[7] = target: T5, CEACAM6 on the surface of the tumor …; experiment: as above
Method: as §5, §6

[8] = target: T2, human CEACAM5-his (ACRO CE5-H5226); experiment: ELISA on coated human CEACAM5, OD450; remark: listed apart in the source
Method: as §1

Row | Binder | EC50 (read off the curve) (Human-CEACAM6 (AB)-His [1]) [µg/mL] | OD (mouse CEACAM5) [OD] | EC50 (read off the curve) [2] [µg/mL] | Kd (Human-CEACAM6 (AB)-His [3]) [nM] | Kd [4] [nM] | Kd [5] [nM] | EC50 (read off the curve) [6] [nM] | EC50 (read off the curve) [7] [nM] | EC50 (read off the curve) [8] [µg/mL]
1 | B1 | ~0.02 | 0.15 | ~0.03 | 4.51 | 37.4 | 1.36 | – | – | –
2 | B2 | ~0.01 | – | – | – | – | – | ~2 | ~2 | –
3 | B3 | ~0.02 | – | – | – | – | – | ~2 | ~2 | ~0.01
4 | B4 | – | – | – | < 0.001 | 3.83 | 7.64 | – | – | –
5 | B5 | – | – | – | 117 | 19.7 | < 0.001 | – | – | –
